This is an account of results in article PMC4537050, “A long pentraxin-3-derived pentapeptide for the therapy of FGF8b-driven steroid hormone-regulated cancers” (Oncotarget, 2015).

In assay [1] the target is Human recombinant FGF8b (fibroblast growth factor-8b) (human).
The target in another assay is FGF2 (UniProt P09038). In words: SPR; BIAcore X-100; FGF8b (20 μg/ml in 10 mM sodium acetate, pH 6.0) or other FGFs (10 mM sodium acetate at optimal pH) immobilised on a CM5 sensor chip by EDC/NHS; peptide injected (ARPCA 8 μM to 2000 μM), 4 min at 30 μl/min, 10 min dissociation, in HBS; equilibrium values fitted with the Langmuir equation for monovalent binding. (SPR reads the build-up and loss of mass on a sensor chip optically.)

For assay [2], the target named is Human recombinant FGF8b (fibroblast growth factor-8b) (human). The assay is described as above.
Another assay has as its target FGF1 (UniProt P05230). The assay is described as above.

With Ac-ARPCA-NH2 [Ac-ARPCA-NH2, acetylated pentapeptide corresponding to PTX3(100-104)], in assay [1], the inhibition of HUVEC proliferation in response to 30 ng/ml FGF8b (viable cell counts at 48 h) was determined as 30 µM. Also, the Kd – broadly, a measure of binding affinity in units of concentration – was found to be 1700 µM with FGF2, 278 µM in assay [2] and 227 µM with FGF1.
